Article PMC10126545

Target: COBRA P1 HA ectodomain, insect-cell expressed, Foldon and tags removed by thrombin
Assay: SEC; Superdex 200 16/600 in 50 mM NaCl, 10 mM Tris pH 7.5, after thrombin digestion that removed the Foldon and tags

“COBRA P1 HA ectodomain, insect-cell expressed, Foldon and tags removed by thrombin” gave a stoichiometry N of 3.
